These results are taken from patent US20150005368.

The data set has as its target ERBB2 (HER2) (Homo sapiens?) (UniProt P04626). In words: filter. The conditions noted are these: for Kd: same buffer, 37 C.

Bounds are passed on as bounds.

Regarding “ATGTTAGAGTTTGCCTGAGTGCCTCGCAAGGGCGTAACAA [AP001-24 (1194-34, #11 short)]”, the selectivity ratio (ERBB2 over EGFR affinity) (6 (n) = NapdU [n positions 2,4,5,10,11,12,16,20,24,35 = modified dU], affinity for ERBB2 relative to EGFR, curve in figure only) was greater than 1000 fold.
In general, Kd refers to the equilibrium constant for the complex coming apart. A lower Kd goes with a tighter complex. “GAGTGACCGTCTGCCTGATGTTAGAGTTTGCCTGAGTGCCTCGCAAGGGCGTAACAACAGCCACACCACCAGCC [clone #11 (1194-2, 9-ER-N-B12_C06)]” registered a Kd (6 (n) = NapdU [n positions 19,21,22,27,28,29,33,37,41,52 = modified dU], Bmax 0.29) of 3.06 nM. In other words, the single-digit nanomolar range.
For the sequence “GAGTGACCGTCTGCCTGGTCTGAACACCGAGATTAGCCGAACGAACGGTATGGACGTCAGCCACACCACCAGCC [clone #33 (9-ER-N-F02_A09)]”, the Kd (6 (n) in core = NapdU [n positions 19,21,33,34,49,51,57 = modified dU], Bmax only 0.03) stood at 9.79 nM.
Regarding “GAGTGACCGTCTGCCTGGTTAGACTGAACGCACTGAGGGCCGCAGCCTATCTGAAGGCAGCCACACCACCAGCC [clone #10 (9-ER-N-B09_B06)]”, under “6 (n) in core = NapdU [n positions 19,20,25,34,48,50,52 = modified dU], Bmax 0.25”, the dissociation constant Kd worked out at 3.71 nM.
